The values below come from patent publication CN115029318A.

Test [1] has as its target CD3 on T cells of human PBMC (human). Nature of the test: cell-based or functional assay.
For test [2], the target named is EGFR (epidermal growth factor receptor) on human glioma U87 cells (human) (UniProt P00533). Description: cell-based or functional assay.

B1: EGFR-CD3-EGFR MsAb (bispecific antibody, part only; not given: linkers and His tag, not shown: small tags and cut ends)
chain, part: ESGGGLTQPGGSLRLSCAASGMSTGMWHRPTPGRERELIALKAPWPGTAPSSWRFTISRDNASNTVYLQMANLNTEDTAVYFCHAGGLLEWELLVVAASWGQGTVSSQVKLEESGSELVQPGGPLRLSCAASANIFSRTEDDWIWYRQAPGKQRAFVAWITGLSTKIGRFTISVDKSKGTIYLQMNALKPEDTAVYYANAAEHASKVVEVSTSWGQGTVVTVSSESGGGLTQPGGSLRLSCAASGMSTGMWHRPTPGRERELIALKAPWPGTAPSSWRFTISRDNASNTVYLQMANLNTEDTAVYFCHAGGLLEWELLVVAASWGQGTVSS
On to B1, for which the 细胞杀伤率 (killing of GFP-labelled U87 cells by human PBMC, effector:target 5:1, 50 ng/mL antibody, 24 h, 7-AAD, high-content imaging) in test [1] and in test [2] was more than 80% throughout.
